Experimental findings from US20090130105A1 (Biogen, published 2009) are described below.

What is called EC50 is the concentration that produces a half-maximal response. The low end stands for an effect from little substance, the high end for a need for much substance. What is called IC50 is the concentration at which inhibition is half-maximal. Read a low IC50 as inhibition by little substance.

Experiment [1] deals with T1, hIGF-1R-Fc mutant SD103 (D461A, V462T) (human, UniProt P08069 31-933).
T1 construct: not shown: human IgG1 Fc, C-terminal tag
In words: SPR, immobilized antibody. As to the method: Surface plasmon resonance (SPR) experiments were performed on a Biacore 3000 instrument set to 25° C. […] The antibody sensorchip surfaces were prepared by injecting each antibody (diluted 100 μg/mL in 10 mM Acetate, pH 4.0) over EDC/NHS-activated sensorchip surfaces according to the standard protocol of the manufacturer. […] Both hIGF-1R-Fc and mIGF-1R-Fc proteins oligomerize due to the incorporation of two separate homodimeric regions (IGF-1R and IgG1-Fc). […] After, completion of the receptor-Fc loading step, flow rates were elevated to 5 μl/min. […] Dissociation was measured for 7 minutes after the antibody injections were complete. Finally, the flow rate was elevated to 30 μL/min and the chip surfaces were regenerated by 2×10 μL injections of 0.1 M glycine, pH 2.
On the technique in general: SPR reads the build-up and loss of mass on a sensor chip optically.

A further experiment deals with T2, sIGF-1R(1-903) (human, UniProt P08069 31-933).
T2 construct: also called soluble IGF-1R ectodomain
The experiment in a line: ITC series titration, C06 MAb first. As to the method: The protein solutions were prepared as described above for the MAb binding experiments. All ITC experiments were performed on an ITC₂₀₀ microcalorimeter (MicroCal, LLC) at 25° C. […] IGF-1R bispecific antibodies. A four minute equilibration period was used between all injections with an initial delay of 60 seconds. Numerical integration of the data was performed using the ITC data analysis software supplied by MicroCal (Origin). ΔHA° (T) values were calculated based on the difference between the average heat liberated/absorbed during the binding phase of the injections and the average heat of dilution found once the receptor, IGF-1R, was saturated with MAb or BsAb.
Both the dimeric receptor and the bivalent MAbs contain two potential binding sites.

Experiment [2] deals with T3, human IGF-1R on H322M non-small cell lung cancer cells (human, UniProt P08069 31-1367).
T3 construct: Endogenous receptor of the tumor cell line; also called cell surface IGF-1R
The experiment in a line: flow cytometry on H322M cells, anti-human Fab PE secondary (FIG. 55A). As to the method: Cell lines were routinely cultured no greater than 20 passages. Flow cyotometric analysis of antibody binding to human cancer cells. Cells were lifted with cell dissociation buffer (Gibco catalog #13151-014), counted, washed and adjusted to 5×10⁶ cells/ml. Cells (2.5×10⁵; 50 uL) were added to each well of a 96-well round bottom plate (Costar #3799). Purified antibodies were tested at a starting concentration of 300 nM with serial half-log dilutions in FACS buffer. FACS buffer used throughout the assay was PBS (without Ca++/Mg++) containing 5% FBS. Samples were incubated on ice for 30 minutes, washed 3× with 200 uL FACS buffer and centrifuged at 1200 rpm for 3 minutes at 4° C. C2B8 (rituximab, IgG1) was used as a negative control. […] Samples were incubated for an additional 30 minutes on ice, shielded from light. Cells were washed as described above and resuspended in 100 μl FACS buffer containing propidium iodide (PI) for dead cell exclusion (BD Pharmingen, catalog# 51-66211E or 556463; use at 1:500 final in FACS buffer). Samples were run in triplicate using the FACSArray flow cytometer (Becton Dickinson) with 5000 live events collected per sample. Data analysis was performed using the GraphPad Prism version 5.0 software (GraphPad Software Inc., 11452 El Camino Real #215, San Diego, Calif. 92130). Results. […]
(In general: A flow cytometer gives signals particle by particle.)

Experiment [3] concerns the target T4, human IGF-1R(1-903)-Fc (human, UniProt P08069 31-933).
T4 construct: also called hIGF-1R-Fc; SDWT; not shown: human IgG1 Fc, C-terminal tag
In words: IGF-1 blocking ELISA at 20 nM IGF-1 His on biotinylated hIGF-1R-Fc. As to the method: (§1) The dilutions were added to the plates in duplicate at 100 μL/well and the plates were incubated at RT for 1 hour. The plates were then washed four times with 200 μL/well PBST. An HRP-conjugated anti-Histag antibody (Penta-His HRP Conjugate, QIAGEN, Cat. No. 1014992) was diluted 1:1000 in PBST and added to plates at 100 μL/well, and the plates were incubated at RT for one hour. The plates were then washed four times with 200 μL/well PBST. SureBlue Reserve TMB Microwell Peroxidase Substrate (KPL, Cat. No. 53-00-01) was added to plates at 100 μL/well followed by 1% phosphoric acid at 100 μL/well once the desired reaction was observed. The absorbance of each well was determined at 450 nm, and the results were normalized and plotted against the log of antibody concentration.
(§2) Ligand Blocking Properties.
For orientation: ELISA stands for enzyme-linked immunosorbent assay.

Experiment [4] deals with T4, human IGF-1R(1-903)-Fc. The experiment in a line: ELISA, blocking of IGF-2 His (640 nM by the table head) on biotinylated hIGF-1R-Fc.
Experiment [5] deals with T4, human IGF-1R(1-903)-Fc. In words: IGF-1 blocking ELISA at 1280 nM IGF-1 His on biotinylated hIGF-1R-Fc. As for the experimental part:
as §1, §2

The target in experiment [6] is T4, human IGF-1R(1-903)-Fc. The experiment in a line: IGF-1 blocking ELISA: antibody titrated in 320 nM IGF-1 His on biotinylated hIGF-1R-Fc on streptavidin plates, bound ligand detected with anti-His-HRP. As for the experimental part:
as §1, §2

T4 sequence (P08069 31-933): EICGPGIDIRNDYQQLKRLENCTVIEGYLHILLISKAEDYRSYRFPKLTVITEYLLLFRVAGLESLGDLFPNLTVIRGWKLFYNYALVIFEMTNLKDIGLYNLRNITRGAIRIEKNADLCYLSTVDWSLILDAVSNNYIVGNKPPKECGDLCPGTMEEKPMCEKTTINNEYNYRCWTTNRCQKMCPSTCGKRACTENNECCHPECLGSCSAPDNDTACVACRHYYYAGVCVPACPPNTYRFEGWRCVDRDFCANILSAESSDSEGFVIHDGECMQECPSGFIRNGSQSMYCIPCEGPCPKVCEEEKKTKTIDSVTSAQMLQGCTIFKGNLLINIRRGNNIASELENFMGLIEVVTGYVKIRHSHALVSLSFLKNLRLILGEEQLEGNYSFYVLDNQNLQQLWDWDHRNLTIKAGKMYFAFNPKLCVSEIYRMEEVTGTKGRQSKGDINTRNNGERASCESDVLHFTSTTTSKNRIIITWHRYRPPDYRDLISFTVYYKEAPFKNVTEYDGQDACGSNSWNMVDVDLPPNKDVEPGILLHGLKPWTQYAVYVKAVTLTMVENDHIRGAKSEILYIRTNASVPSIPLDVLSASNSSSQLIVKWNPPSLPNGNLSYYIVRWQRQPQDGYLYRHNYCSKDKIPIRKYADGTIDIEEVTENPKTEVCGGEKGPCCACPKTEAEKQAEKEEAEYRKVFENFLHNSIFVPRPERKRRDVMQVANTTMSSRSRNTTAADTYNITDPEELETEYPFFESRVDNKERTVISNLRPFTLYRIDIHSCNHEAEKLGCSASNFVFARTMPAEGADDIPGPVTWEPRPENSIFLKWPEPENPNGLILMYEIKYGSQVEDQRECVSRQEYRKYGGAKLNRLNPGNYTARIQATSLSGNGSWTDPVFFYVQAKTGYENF
T3 sequence (P08069 31-1367, stated change not applied): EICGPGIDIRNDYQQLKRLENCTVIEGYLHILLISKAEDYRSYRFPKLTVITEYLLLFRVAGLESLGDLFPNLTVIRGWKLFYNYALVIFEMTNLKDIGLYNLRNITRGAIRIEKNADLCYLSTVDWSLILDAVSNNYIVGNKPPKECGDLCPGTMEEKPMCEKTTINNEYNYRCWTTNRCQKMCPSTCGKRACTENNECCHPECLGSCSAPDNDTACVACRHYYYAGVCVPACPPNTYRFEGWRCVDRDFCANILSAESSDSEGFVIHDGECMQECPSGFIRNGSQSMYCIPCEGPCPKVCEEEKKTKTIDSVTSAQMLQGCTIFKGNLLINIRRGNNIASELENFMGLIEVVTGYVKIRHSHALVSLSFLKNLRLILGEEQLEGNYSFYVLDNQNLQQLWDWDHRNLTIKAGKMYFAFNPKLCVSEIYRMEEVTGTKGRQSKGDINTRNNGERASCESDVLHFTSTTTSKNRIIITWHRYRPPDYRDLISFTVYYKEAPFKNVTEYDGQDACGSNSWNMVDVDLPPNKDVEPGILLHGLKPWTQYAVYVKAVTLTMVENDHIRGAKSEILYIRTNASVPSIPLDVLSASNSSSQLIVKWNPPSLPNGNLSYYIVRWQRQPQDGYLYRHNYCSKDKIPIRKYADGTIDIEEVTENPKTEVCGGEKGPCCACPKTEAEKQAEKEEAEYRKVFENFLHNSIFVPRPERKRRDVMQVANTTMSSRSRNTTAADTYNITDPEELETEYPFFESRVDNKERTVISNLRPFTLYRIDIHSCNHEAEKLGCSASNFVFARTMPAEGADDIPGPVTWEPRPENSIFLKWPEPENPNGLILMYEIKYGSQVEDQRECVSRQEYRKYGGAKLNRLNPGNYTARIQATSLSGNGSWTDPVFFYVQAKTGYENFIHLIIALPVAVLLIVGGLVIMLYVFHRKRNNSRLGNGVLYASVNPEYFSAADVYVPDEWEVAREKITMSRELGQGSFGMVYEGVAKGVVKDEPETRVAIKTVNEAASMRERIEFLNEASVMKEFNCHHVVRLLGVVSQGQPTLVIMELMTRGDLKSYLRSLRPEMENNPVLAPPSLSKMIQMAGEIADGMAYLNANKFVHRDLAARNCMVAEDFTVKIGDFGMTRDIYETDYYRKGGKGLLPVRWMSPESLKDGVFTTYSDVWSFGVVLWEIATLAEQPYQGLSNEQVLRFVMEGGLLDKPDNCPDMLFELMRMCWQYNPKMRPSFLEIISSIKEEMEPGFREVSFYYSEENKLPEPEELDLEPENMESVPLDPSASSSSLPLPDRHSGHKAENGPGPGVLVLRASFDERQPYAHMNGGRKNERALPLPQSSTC
T2 sequence (P08069 31-933): as the sequence (P08069 31-933) above
T1 sequence (P08069 31-933 D491A/V492T): as the sequence (P08069 31-933) above, with D461A, V462T counted along it

B1: M13-C06 antibody (antibody, V domains shown)
VH: EVQLLESGGGLVQPGGSLRLSCAASGFTFSIYRMQWVRQAPGKGLEWVSGISPSGGTTWYADSVKGRFTISRDNSKNTLYLQMNSLRAEDTAVYYCARWSGGSGYAFDIWGQGTMVTVSS
VL: DIQMTQSPLSLSASVGDRVTITCQASRDIRNYLNWYQQKPGKAPKLLIYDASSLQTGVPSRFGGSGSGTDFSFTIGSLQPEDIATYYCQQFDSLPHTFGQGTKLEIK
notes: Fully human full-length antibody (ATCC PTA-7444); also called M13.C06.G4.P.agly; M13-C06.G4P.agly
Turning to B1, the binding result in experiment [1] is “no binding”. Also, the “ΔH°” value with sIGF-1R(1-903) is -21.9 kcal/mol. This molecule also had an EC50 in experiment [2] of 0.2 nM. The “IC50 (read off the curve)” value in the experiment with human IGF-1R(1-903)-Fc [3] and with human IGF-1R(1-903)-Fc [5] was approximately 1 nM in each case. In the experiment with human IGF-1R(1-903)-Fc [4], half-maximal inhibition (IC50) was put at 1.9 nM.

B2: M13-C06 Fab (Fab, V domains shown)
VH: EVQLLESGGGLVQPGGSLRLSCAASGFTFSIYRMQWVRQAPGKGLEWVSGISPSGGTTWYADSVKGRFTISRDNSKNTLYLQMNSLRAEDTAVYYCARWSGGSGYAFDIWGQGTMVTVSS
VL: DIQMTQSPLSLSASVGDRVTITCQASRDIRNYLNWYQQKPGKAPKLLIYDASSLQTGVPSRFGGSGSGTDFSFTIGSLQPEDIATYYCQQFDSLPHTFGQGTKLEIK
notes: Fab made by enzymatic digestion of the IgG
As to B2, in the experiment with human IGF-1R(1-903)-Fc [6], the “IC50 (read off the curve)” value was approximately 1 nM.
